A word on the Kd: it is the equilibrium constant for the complex coming apart. A high value points to a looser complex. As usually defined, the koff is a measure of how fast the partners let go of each other. A low value points to a long-lived complex. A word on the kon: it is the second-order rate constant of association. A lower kon goes with slow association.

Numbering of substitutions follows the chain as printed.

The target of test [1] is T1, human pro-myostatin (human, UniProt O14793 24-375, biotinylated (in the SPR assay)). Briefly: cell-based or functional assay.
The target of test [2] is T2, recombinant human latent myostatin (human, UniProt O14793 24-375, biotinylated (in the Octet pH assay only)). The test can be described thus: cell-based or functional assay.
Test [3] has as its target T2, recombinant human latent myostatin. Briefly: cell-based or functional assay. This is another data set of the same source.
Test [4] addresses T1, human pro-myostatin. Briefly: SPR Biacore 8K, biotin-antigen captured. On the technique in general: SPR reads the build-up and loss of mass on a sensor chip optically.
For test [5], the target named is T3, murine pro-myostatin (mouse, UniProt O08689 25-376, biotinylated (in the SPR assay)).
T3 construct: also called proGDF8 (mouse); mouse pro-myostatin
Briefly: SPR Biacore 8K, biotin-antigen captured.

For test [6], the target named is T4, cyno pro-myostatin (cynomolgus monkey, Biotinylated for capture in the SPR assay (site not stated). The native form is a disulfide-linked homodimer, partly furin-cleaved; one chain is given.).
T4 construct: also called proGDF8 (cynomolgus); cynomolgus monkey pro-myostatin
Briefly: SPR Biacore 8K, biotin-antigen captured.

Test [7] addresses T1, human pro-myostatin. Briefly: Ab KD, summary Table 11; method and antigen not stated there.
Test [8] deals with T2, recombinant human latent myostatin. Briefly: BLI Octet Red384, biotin human latent myostatin on streptavidin tips. Here is the method: (§1) Binding was performed at pH 7.4 and dissociation at pH 5.5 in an Octet Red384@assay. Streptavidin biosensors were baselined in 1x kinetics buffer (KB) (Sartorius) for one minute, then loaded with 100 nM biotinylated human latent myostatin for five minutes, followed by another baseline step of one minute in 1x KB. Binding of test antibodies was performed for five minutes and then dissociation was performed in PBS at either pH 7.4 or pH 5.5 for five minutes. Analysis was performed using a partial fit, in which full dissociation was projected. Kd at pH 5.5 was divided by Kd at pH 7.4 to calculate pH sensitivity.
In general terms: Biolayer interferometry detects binding as a change in optical thickness at a sensor tip.

Test [9] has as its target T1, human pro-myostatin. The test can be described thus: Fab KD, summary Table 11; method and antigen not stated there.
Test [10] concerns the target T2, recombinant human latent myostatin. Briefly: BLI (Octet Red384): streptavidin biosensors loaded with biotinylated human latent myostatin, antibody association 300 s, dissociation in PBS at pH 7.4 or pH 5.5. Here is the method:
as §1

Test [11] addresses human GDF-11 (human, UniProt O95390 299-407, limits assumed). The test can be described thus: plate binding assay, OD 450 nm, one antibody concentration that is not given, on Hu-GDF-11 (method not described in the text).
Test [12] addresses mouse GDF-11 (mouse, UniProt Q9Z1W4 297-405, limits assumed). Briefly: plate binding assay, OD 450 nm, one antibody concentration that is not given, on Mu-GDF-11 (method not described in the text).
In test [13] the target is T3, murine pro-myostatin. Briefly: plate binding assay, OD 450 nm, antibody titrated 0.0003 to 100 nM, panel 'Mu-Pro-GDF-8 Plate 2' (method not described in the text).

Sequence of human GDF-11 (O95390 299-407 limits assumed): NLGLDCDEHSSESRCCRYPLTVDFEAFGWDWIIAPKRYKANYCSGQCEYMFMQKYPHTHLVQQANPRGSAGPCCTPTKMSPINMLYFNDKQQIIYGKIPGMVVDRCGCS
Sequence of mouse GDF-11 (Q9Z1W4 297-405 limits assumed): as the sequence (O95390 299-407 limits assumed) above

B1: Ab102 (antibody, human IgG4 S228P, kappa, V domains shown)
VH: EVQLVESGGGLVQPGGSLRLSCAASGFTFTSYGMSWVRQAPGKGLELVASITGSGGETYYPDSVKGRFTISRDNAKNSLYLQMNSLRAEDTAVYYCARDLLVRFLEWSHYYGMDVWGQGTTVTVSS
VL: DIVMTQSPLSLPVTPGEPASISCRSSQSLLHSSGHNFLHWYLQKPGQSPQLLIYETSNRAPGIPDRFSGSGSGTDFTLKISRVEAEDVGVYYCMQATQFPRPFGGGTKVEIKR
On to B1, for which, in test [1], the “IC50 (nM) Pro + Furin” value was found to be 0.211 nM. Moreover, the “IC50 (nM) Latent + mTLL2” value in [2] turned out to be 0.162 nM. Also, the “mTLL2 IC50” value in test [3] is 346 pM. Moreover, the Kd came to 58 pM in test [4], 82 pM in test [5], 49 pM in test [6] and 329 pM in test [7]. Besides, the koff in test [4] worked out at 0.000376 s⁻¹; in [5] it was 0.0005 s⁻¹; in test [6] it was 0.000335 s⁻¹. Besides, the association rate constant (kon) turned out to be 6.49e+06 M⁻¹ s⁻¹ in test [4], 6.11e+06 M⁻¹ s⁻¹ in test [5] and 6.8e+06 M⁻¹ s⁻¹ in test [6]. Besides, the “fold difference in off-rate (Kd at pH 5.5 / Kd at pH 7.4)” value in test [8] was found to be 9.3 fold.

B2: Ab123 Fab (Fab, V domains shown)
VH: EVQLVESGGGLVQPGGSLRLSCAASGFTFSKYDMSWVRQAPGKGLELVASISSSGGTRYYPDSVKGRFTISRDNAKNSLYLQMNSLRAEDTAVYYCAKDLWVASPGYGMDVWGQGTTVTVSS
VL: B1 VL with F37Y, E55L, T56G, N58I, I63V, T97L, Q98L, F99N, R101P, P102T
notes: Fab of Ab123; also called Ab123 Fab fragment
In [9], B2 showed a Kd of 5510 pM.

B3: Ab137 (antibody, human IgG4 S228P, kappa, V domains shown)
VH: EVQLVESGGGLVQPGGSLRLSCAASGFTFSSYGMSWVRQAPGKGLELVASFTGSGGTYYPDSVKGRFTISRDNAKNSLYLQMNSLRAEDTAVYYCARDLLIRFLEWGHYYGMDVWGQGTTVTVSS
VL: B1 VL with T56V, A60V, P61S, I63V, A96Q, F99Y, R101P, P102T
In the case of B3, in test [10], the “fold difference in off-rate (Kd at pH 5.5 / Kd at pH 7.4)” value stood at 26 fold.

B4: Ab138 (antibody, human IgG4 S228P, kappa, V domains shown)
VH: B1 VH with G55K
VL: B1 VL with M94Q
In test [4], B4 showed a Kd of 110 pM, a dissociation rate constant (koff) of 0.000577 s⁻¹ and an association rate constant (kon) of 5.27e+06 M⁻¹ s⁻¹. Besides, the “fold difference in off-rate (Kd at pH 5.5 / Kd at pH 7.4)” value in test [10] is 7.9 fold.

B5: Ab140 (antibody, human IgG4 S228P, kappa, V domains shown)
VH: B3 VH with L99N, G107S
VL: B1 VL with T56V, A60E, P61S, I63V, M94Q, A96Q, F99Y, R101P, P102T
For B5, in test [4], binding was put at a Kd of 109 pM, the koff was 0.000711 s⁻¹ and the kon worked out at 6.53e+06 M⁻¹ s⁻¹. The “fold difference in off-rate (Kd at pH 5.5 / Kd at pH 7.4)” value in [10] was determined as 10.4 fold.

B6: Ab139 (antibody, human IgG4 S228P, kappa, V domains shown)
VH: B3 VH with G56A, T57A, G107S
VL: B1 VL with T56S, A60V, P61S, I63V, M94Q, A96Q, F99Y, R101P, P102T
B6: in test [4], the Kd came out at 121 pM, the koff was 0.0023 s⁻¹ and the kon was found to be 1.9e+07 M⁻¹ s⁻¹. Moreover, in test [10], the “fold difference in off-rate (Kd at pH 5.5 / Kd at pH 7.4)” value stood at 16.3 fold.

B7: Ab105 (antibody, human IgG4 S228P, kappa, V domains shown)
VH: B3 VH with F27S, T28A, F51I, T52G, S54T, G56A, I101V
VL: DIVMTQSPLSLPVTPGEPASISCRSSQSLLHSSGYNFLHWYLQKPGQSPQLLIYAASSRAPGIPDRFSGSGSGTDFTLKISRVEAEDVGVYYCMHGGQGPTFGGGTKVEIKR
Turning to B7, the “IC50 (nM) Pro + Furin” value in test [1] worked out at 0.356 nM. Moreover, the “IC50 (nM) Latent + mTLL2” value in [2] was 0.25 nM. In [3], the “mTLL2 IC50” value was found to be 250 pM. In addition, the dissociation constant (Kd) stood at 51 pM in [4], 46 pM in [5], 44 pM in test [6] and 229 pM in [7]. Moreover, the values for the off-rate (koff) in [4], in test [5] and in [6] were 0.000247 s⁻¹, 0.000276 s⁻¹ and 0.000233 s⁻¹, respectively. Further, the kon was 4.89e+06 M⁻¹ s⁻¹ in test [4], 5.99e+06 M⁻¹ s⁻¹ in test [5] and 5.26e+06 M⁻¹ s⁻¹ in [6]. The “fold difference in off-rate (Kd at pH 5.5 / Kd at pH 7.4)” value in test [8] was determined as 0.8 fold.

B8: Fab fragment of Ab109 (Fab, V domains shown)
VH: B3 VH with G107S
VL: DIVMTQSPLSLPVTPGEPASISCRSSQSLLHSSGHNFLHWYLQKPGQSPQLLIYEVSNRVSGVPDRFSGSGSGTDFTLKISRVEAEDVGVYYCMQQTQYPPTFGGGTKVEIK
notes: Fab of Ab109 (molecular weight 49.25 kDa); also called Ab109 Fab
In the case of B8, in [9], the dissociation constant Kd was 39500 pM.

B9: Ab131 (antibody, human IgG4 S228P, kappa, V domains shown)
VH: B3 VH with F27S, T28A, F51I, T52G, S54T, G56A, I101V
VL: B7 VL with M94Q
Turning to B9, in test [3], the “mTLL2 IC50” value amounted to 208 pM. Also, the Kd in test [7] was 155 pM. Further, the “fold difference in off-rate (Kd at pH 5.5 / Kd at pH 7.4)” value in [8] is 0.9 fold.

B10: Ab141 Fab (Fab, V domains shown)
VH: B3 VH with T57A, G107S
VL: B8 VL with P101G
notes: Fab of Ab141
Regarding B10, the Kd in test [9] was found to be 19000 pM.

B11: Ab133 Fab (Fab, V domains shown)
VH: B3 VH with T57A, G107S
VL: B8 VL with M94Q, P101G
notes: Fab of Ab133
On to B11, for which the Kd in [9] came to 23000 pM.

B12: Ab131 Fab (Fab, V domains shown)
VH: B3 VH with F27S, T28A, F51I, T52G, S54T, G56A, I101V
VL: DIVMTQSPLSLPVTPGEPASISCRSSQSLLHSSGYNFLHWYLQKPGQSPQLLIYAASSRAPGIPDRFSGSGSGTDFTLKISRVEAEDVGVYYCQHGGQGPTFGGGTKVEIK
notes: Fab of Ab131
In [9], B12 came in with a Kd of 17400 pM.

B13: Ab132 Fab (Fab, V domains shown)
VH: B3 VH with G107S
VL: B8 VL with M94Q
notes: Fab of Ab132
As for B13, the Kd in test [9] was determined as 61400 pM.

B14: Ab120 (antibody, human IgG4 S228P, kappa, V domains shown)
VH: QVQLVQSGAEVKKPGASVKVSCKVSGGTFSTFHIHWVRQAPGKGLEWMGGISAYSGSTIYAQKFQGRVTMTEDTSTDTAYMELSSLKSEDTAVYYCARARYVDDAFDIWGQGTMVTVSS
VL: DIQMTQSPSSVSASVGDRVTITCRASEDISNFLAWYQQKPGKAPKLLIYAASDLLSGVPSRFSGSGSGTDFTLTISSLQPEDFANYYCQKYISAPSFGGGTKVEIKR
In the case of B14, the binding result was “no binding” in test [11], “no binding” in test [12] and “binds” in [13].

B15: Ab112 Fab (Fab, V domains shown)
VH: QVQLVQSGAEVKKPGASVKVSCKVSGGTFGIYAIHWVRQAPGKGLEWMGGTIPVFGTAIYAQKFQGRVTMTEDTSTDTAYMELSSLKSEDTAVYYCASLTGIAAAGTHPARGGMDVWGQGTTVTVSS
VL: DIQMTQSPSSVSASVGDRVTITCRASPSISSYLAWYQQKPGKAPKLLIYAASRLQSGVPSRFSGSGSGTDFTLTISSLQPEDFANYYCQEYLSFPLTFGGGTKVEIK
notes: Fab of Ab112; also called Ab112 Fab fragment
Regarding B15, the dissociation constant Kd in test [9] was 6190 pM. In other words, the single-digit nanomolar range.

The values above are taken from patent US20260209325A1 (SCHOLAR ROCK, published 2026).
